Read-outs that look alike come from different tables or passages of the source.
Assays:
Assay in all cases: SPR
[1] = biological target: recombinant full length GST-TIMAP (wt), non-phosphorylated
[2] = biological target: double-thiophosphorylated GST-TIMAP (wt)
[3] = biological target: mono-thiophosphorylated GST-TIMAP (wt)
[4] = biological target: recombinant full length GST-TIMAP (wt), non-phosphorylated; remark: listed apart in the source

- Ka [1]: 1.8e+06 M⁻¹
- Ka [2]: 1.93e+06 M⁻¹
- koff [2]: 0.000522 s⁻¹
- kon [2]: 1010 M⁻¹ s⁻¹
- Ka [3]: 7.39e+06 M⁻¹
- koff [3]: 0.000556 s⁻¹
- kon [3]: 4110 M⁻¹ s⁻¹
- Ka [4]: 1.28e+06 M⁻¹
- koff [4]: 0.00366 s⁻¹
- kon [4]: 4680 M⁻¹ s⁻¹
Substance: recombinant PP1cβ (catalytic subunit of protein phosphatase 1, β isoform) (from UniProt P62140 1-327) (enzyme)
